B1: EGFP-Mps1^WT [Drosophila] / MBP-PP1-87B [Drosophila] (parent)
chain 1: MTTPVPRRTKDMMALGLDSDSEDDFNTPYRPRQAAAGERKQQPVASFQVQTRGKENEPHPLPINMLPRRVSELTMMDSDSDEEDIKSNHNLNCAILNDSFVLSPSQELTNSNSNITTRRTPSAAPLKQSDSNLSFLGRFNDMGINCSSQGSPVANSEKQVAKKTAPTLQAAPSATERRPLQETETPLRNELPSTSKTKPDADFITPQVRTIGSTLAGKSRSAVSNDFRAQKVLFQTPMTVSRAAPVASDSISFSLCDTITESPDIPEPPKKAEPPKSQHPSKKSLDHVFRESDKDNVPDKVDNVEPKELVSIPAVAVPPEQPSHKTSNILKIKNHEYTIDKKLGCGGSSSVFLARRSDSGNEFALKVVDLQADPQVVQGYLNETKLLAKLQGNVCVVALYDYQLVREESKLYMVMEKGDCDLNKILQSYTTNLPLYSLMNILYQMLQAVNYIHQHGVIHSDLKPANFLMVSGRLKLIDFGIASNIAVDSTSIIKFSQAGTFNYISPEALTDTSTGNSPMRRADQPKIKISTKSDVWSLGCILYLLLYQKTPFGHIRNVYAKMSAITTPGTSIEYPAIPPYYPIMLVHMAKNCLQLNPKKRPSCTELLQYPFHMIIPLQNLQIPSRTANSN
chain 2: MGDVMNIDSIISRLLEVRGARPGKNVQLSEGEIRGLCLKSREIFLSQPILLELEAPLKICGDIHGQYYDLLRLFEYGGFPPESNYLFLGDYVDRGKQSLETICLLLAYKIKYSENFFLLRGNHECASINRIYGFYDECKRRYSIKLWKTFTDCFNCLPVAAIVDEKIFCCHGGLSPDLTSMEQIRRIMRPTDVPDQGLLCDLLWSDPDKDTMGWGENDRGVSFTFGAEVVAKFLQKHEFDLICRAHQVVEDGYEFFAKRMLVTLFSAPNYCGEFDNAGAMMSVDDTLMCSFQILKPADKRKK

Variants of: B1
Test: pull-down (MBP-PP1-87B beads, S2 cell lysates), western blot chemiluminescence quantification
Details: with MBP-PP1-87B [Drosophila]; at least two independent experiments; mean ± SD; parent: 1; read off a plot

Row | ratio to parent | Variant
1 | 0.3 | chain 1 K231A F234A

— article PMC5433843
